# According to the supplement of paper PMC10126150:
# ± gives the standard deviation of the averaged measurements.
# Tested on: ATP
# Assay: switch fluorescence ratio, 500 uM ATP over buffer (Cy3 cluster intensity, sum of 5 cycles each) (fold (ratio)); higher = stronger signal-on switching upon ATP binding; sequences stand for … in TCGTCGGCAGCGTCAGATGTGTATAAGAGACAGTTTTTTTTTTTTTTTTTTTTTTTTT…TC
# Conditions: aptamer strand: ATP DNA aptamer (quencher-CACCTGGGGGAGTATTGCGGAGGAAGG + anchor), 100 nM annealed; ATP concentration: 500 uM
# In short: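 Cy3-labelled switching-strand clusters on a modified Illumina MiSeq flow-cell were annealed to 100 nM quencher-labelled ATP aptamer and imaged first in selection buffer, then after 15 min with 500 uM ATP at 22 °C. NaOH stripping and re-annealing separated each of five buffer/ATP cycles, and clusters outside 100-1000 RFU were excluded. The fluorescence ratio sums target-cycle Cy3 intensity over buffer-cycle Cy3 intensity per cluster and averages it per switch-domain sequence.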
# 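Note: ATP exposure 15 min at 22 °C before imaging.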
row,Sequence,switch fluorescence ratio
1,CGGGCTGGAG,1.09 ± 0.079
2,CGGGCTTGGC,1.01 ± 0.0022
3,CGGGCTTGGG,0.968 ± 0.0031
4,CGGGGAACTC,1.06 ± 0.056
5,CGGGGAAGAT,0.981 ± 0.016
6,CGGGGAAGGT,1 ± 0.031
7,CGGGGAATTG,1 ± 0.014
8,CGGGGAGATC,1.03 ± 0.062
9,CGGGGAGGCT,0.988 ± 0.047
10,CGGGGAGGGT,0.967 ± 0.015
11,CGGGGAGGTA,0.9803 ± 0.0049
12,CGGGGAGTGG,0.973 ± 0.032
13,CGGGGATCCT,1.05 ± 0.032
14,CGGGGATCTA,1 ± 0.018
15,CGGGGATGTA,0.972 ± 0.031
16,CGGGGATTGG,1 ± 0.042
17,CGGGGCACCG,0.9868 ± 0.0032
18,CGGGGCACGC,0.896 ± 0.05
19,CGGGGCACTG,0.997 ± 0.018
20,CGGGGCAGCG,1.02 ± 0.042
21,CGGGGCCGTT,1 ± 0.019
22,CGGGGCGCGG,0.977 ± 0.024
23,CGGGGCGG,0.952 ± 0.057
24,CGGGGCGGGG,0.985 ± 0.012
25,CGGGGCTCCG,0.967 ± 0.023
26,CGGGGCTTAG,1.0342 ± 0.00025

row,Sequence,switch fluorescence ratio
1,CGGGGCTTGT,0.985 ± 0.013
2,CGGGGGACGT,0.9794 ± 0.0085
3,CGGGGGAGCC,1.02 ± 0.025
4,CGGGGGAGGT,0.989 ± 0.017
5,CGGGGGCAGG,1.03 ± 0.07
6,CGGGGGCATA,1 ± 0.029
7,CGGGGGCGCG,1.02 ± 0.021
8,CGGGGGGAAG,1.01 ± 0.029
9,CGGGGGGCAG,1.01 ± 0.024
10,CGGGGGGCGC,0.969 ± 0.014
11,CGGGGGGGTC,1 ± 0.036
12,CGGGGGGGTT,1.02 ± 0.034
13,CGGGGGGTTA,1.01 ± 0.033
14,CGGGGGTCAA,0.99 ± 0.011
15,CGGGGGTCCA,1.01 ± 0.055
16,CGGGGGTCTA,1.01 ± 0.045
17,CGGGGGTGA,1.014 ± 0.0059
18,CGGGGGTGAG,1.04 ± 0.13
19,CGGGGGTGCT,0.966 ± 0.044
20,CGGGGGTTGC,0.977 ± 0.042
21,CGGGGTACCT,1.01 ± 0.054
22,CGGGGTACGC,1 ± 0.076
23,CGGGGTAGTT,1.01 ± 0.004
24,CGGGGTATCT,0.979 ± 0.018
25,CGGGGTCAAC,1.24 ± 0.39
26,CGGGGTCAGT,1.02 ± 0.014

row,Sequence,switch fluorescence ratio
1,CGGGGTCATG,0.991 ± 0.024
2,CGGGGTCCTA,1.01 ± 0.014
3,CGGGGTCCTG,1.03 ± 0.054
4,CGGGGTCTGT,0.999 ± 0.022
5,CGGGGTGGGA,1.01 ± 0.029
6,CGGGGTGTGC,1.01 ± 0.031
7,CGGGGTGTTC,0.9849 ± 0.0049
8,CGGGGTTGCA,0.978 ± 0.022
9,CGGGGTTGTG,0.966 ± 0.014
10,CGGGGTTTCG,0.993 ± 0.028
11,CGGGTAGGGC,1.01 ± 0.032
12,CGGGTAGGGG,0.996 ± 0.069
13,CGGGTAGTGG,0.995 ± 0.032
14,CGGGTATACT,1.1 ± 0.092
15,CGGGTATGGG,0.984 ± 0.03
16,CGGGTCAACT,0.963 ± 0.014
17,CGGGTCAGTG,0.968 ± 0.04
18,CGGGTCGCTT,0.9738 ± 0.004
19,CGGGTCGGGC,0.991 ± 0.013
20,CGGGTCTCGA,1.03 ± 0.04
21,CGGGTCTTGC,0.981 ± 0.035
22,CGGGTGACGG,1.05 ± 0.057
23,CGGGTGATTA,1 ± 0.035
24,CGGGTGCCAT,0.994 ± 0.018
25,CGGGTGCTTT,1.05 ± 0.013
26,CGGGTGGAGC,0.952 ± 0.011

row,Sequence,switch fluorescence ratio
1,CGGGTGGAGG,1.02 ± 0.018
2,CGGGTGGTTT,0.988 ± 0.03
3,CGGGTGTAGG,1.02 ± 0.062
4,CGGGTTAAAC,1 ± 0.027
5,CGGGTTAGCC,0.998 ± 0.021
6,CGGGTTAGTA,1.02 ± 0.042
7,CGGGTTCAGA,1.051 ± 0.0054
8,CGGGTTGTGG,1.02 ± 0.062
9,CGGGTTTAAT,0.94 ± 0.029
10,CGGGTTTGAA,0.972 ± 0.024
11,CGGTAAAGAT,1 ± 0.058
12,CGGTAACCGC,0.994 ± 0.098
13,CGGTAACGAA,1.04 ± 0.014
14,CGGTACAAGT,1 ± 0.032
15,CGGTACATTG,1.004 ± 0.0053
16,CGGTACCGGG,1.022 ± 0.0061
17,CGGTACTGAT,1.0316 ± 0.00064
18,CGGTAGCGGG,1.008 ± 0.007
19,CGGTAGGCGA,0.985 ± 0.027
20,CGGTAGGGGA,1.023 ± 0.01
21,CGGTAGGGGC,0.968 ± 0.015
22,CGGTAGGTGG,1.01 ± 0.057
23,CGGTAGGTTT,0.9898 ± 0.0057
24,CGGTAGTTAC,1.25 ± 0.059
25,CGGTATAGCA,0.971 ± 0.027
26,CGGTATAGTT,0.988 ± 0.022

row,Sequence,switch fluorescence ratio
1,CGGTATGGGA,0.979 ± 0.044
2,CGGTATGGTA,0.972 ± 0.023
3,CGGTCAAGGT,1.003 ± 0.0076
4,CGGTCACTG,1.002 ± 0.0069
5,CGGTCACTGT,1.03 ± 0.038
6,CGGTCAGGGC,1.02 ± 0.014
7,CGGTCAGGGG,1.11 ± 0.023
8,CGGTCATACT,1.21 ± 0.029
9,CGGTCGCCGG,1.01 ± 0.02
10,CGGTCGCGTG,0.988 ± 0.02
11,CGGTCGCTTG,1.02 ± 0.032
12,CGGTGAAGCC,0.984 ± 0.019
13,CGGTGACGCG,0.982 ± 0.028
14,CGGTGACTCG,1.03 ± 0.029
15,CGGTGAGCGA,1.03 ± 0.044
16,CGGTGAGGGG,0.989 ± 0.011
17,CGGTGAGTTG,1.03 ± 0.04
18,CGGTGATATT,1.03 ± 0.052
19,CGGTGCTTTT,1 ± 0.011
20,CGGTGGGCTA,1.013 ± 0.0052
21,CGGTGGGGGT,0.988 ± 0.022
22,CGGTGGGGTA,1.01 ± 0.033
23,CGGTGTAGCT,1.03 ± 0.019
24,CGGTGTGCGG,0.995 ± 0.037
25,CGGTGTTAGC,0.976 ± 0.0015
26,CGGTGTTGGC,1.05 ± 0.081

row,Sequence,switch fluorescence ratio
1,CGGTGTTTTC,0.972 ± 0.046
2,CGGTTAAAGG,0.974 ± 0.03
3,CGGTTAAGGG,0.982 ± 0.038
4,CGGTTAGAGG,0.989 ± 0.0013
5,CGGTTAGATA,0.987 ± 0.019
6,CGGTTATTGA,1.02 ± 0.022
7,CGGTTCGCCT,0.998 ± 0.016
8,CGGTTCGGCT,1.04 ± 0.047
9,CGGTTCTACG,1.009 ± 0.0053
10,CGGTTCTGTG,1 ± 0.012
11,CGGTTGACGG,0.9494 ± 0.0017
12,CGGTTGAGTT,1.02 ± 0.04
13,CGGTTGCTTG,0.996 ± 0.034
14,CGGTTGGGGA,0.985 ± 0.036
15,CGGTTGGTTT,1.02 ± 0.017
16,CGGTTGTTTT,1.023 ± 0.0065
17,CGGTTTAGCG,0.98 ± 0.029
18,CGGTTTAGGC,0.93 ± 0.026
19,CGGTTTATTG,1 ± 0.036
20,CGGTTTCTCG,0.982 ± 0.02
21,CGGTTTGGGA,0.994 ± 0.035
22,CGGTTTGTAT,0.985 ± 0.023
23,CGGTTTTAGC,0.968 ± 0.042
